Data published in the PETadex activity labels (doi:10.1002/anie.202203061).

Legend:
[1] = Melting temperature [DSF / Thermofluor]; conditions: pH 7.5; part of the chain shown
PET [2] = experiment: Proxy for plastic degradation [Released monomer concentration (HPLC/LC-MS) (TPA)]
PET [3] = experiment: Proxy for plastic degradation [Released monomer concentration (HPLC/LC-MS) (MHET)]

B1: unnamed (protein)
chain: MNFPRASRLMQAAVLGGLMAVSAAATAQTNPYARGPNPTAASLEASAGPFTVRSFTVSRPSGYGAGTVYYPTNAGGTVGAIAIVPGYTARQSSIKWWGPRLASHGFVVITIDTNSTLDQPSSRSSQQMAALRQVASLNGTSSSPIYGKVDTARMGVMGWSMGGGGSLISAANNPSLKAAAPQAPWDSSTNFSSVTVPTLIFACENDSIAPVNSSALPIYDSMSRNAKQFLEINGGSHSCANSGNSNQALIGKKGVAWMKRFMDNDTRYSTFACENPNSTRVSDFRTANCS
With B1 the Melting temperature [1] was 42 °C, the “Proxy for plastic degradation” value (PET [2]; 30 °C, part of the chain shown) was 30 µM and the “Proxy for plastic degradation” value (PET [2]; 37 °C, part of the chain shown) was 25 µM. For the same protein, the “Proxy for plastic degradation” value (PET [2]; 45 °C, part of the chain shown) was 20 µM, the “Proxy for plastic degradation” value (PET [2]; 55 °C, part of the chain shown) was 20 µM and the “Proxy for plastic degradation” value (PET [2]; 65 °C, part of the chain shown) was 10 µM. For the same protein, the “Proxy for plastic degradation” value (PET [3]; 30 °C, part of the chain shown) was 3 µM, the “Proxy for plastic degradation” value (PET [3]; 37 °C, part of the chain shown) was 2 µM and the “Proxy for plastic degradation” value (PET [3]; 45 °C, part of the chain shown) was 2 µM. The “Proxy for plastic degradation” value (PET [3]; 55 °C, part of the chain shown) was 1 µM and the “Proxy for plastic degradation” value (PET [3]; 65 °C, part of the chain shown) was 1 µM.

B2: unnamed (protein)
chain: MNKSILEKIAVGTSALLFSVSAFSFTPSPTPDPDPEPQPCQGECDFTRGPAPSSSYLEASSGPYSVNTVNVSRSVSGFGGGTIHYPTNTTGTMGAIAIVPGFLAGESSIAWWGPRLASHGFVVITIATNSTFDQPASRETQLGRALDYVISQSNSNSSDISGMVDSTRVGAMGWSMGGGGALRIASGSRLSAAIPLAPWHTGSNDFDEIDTPTMIIACENDSTAPVRSHASPFYNSIPSTTDKALLEINNGSHSCANGGGSNGGLLGKYGVSWMKRFIDEDTRYSQFLCGPNHASNSAISEYRETCDY
With B2 the “Proxy for plastic degradation” value (PET [2]; 30 °C) was 20 µM, the “Proxy for plastic degradation” value (PET [2]; 37 °C) was 20 µM and the “Proxy for plastic degradation” value (PET [2]; 45 °C) was 20 µM. The “Proxy for plastic degradation” value (PET [2]; 55 °C) was 20 µM, the “Proxy for plastic degradation” value (PET [2]; 65 °C) was 20 µM and the “Proxy for plastic degradation” value (PET [3]; 30 °C) was 3 µM. For the same protein, the “Proxy for plastic degradation” value (PET [3]; 37 °C) was 2 µM, the “Proxy for plastic degradation” value (PET [3]; 45 °C) was 2 µM and the “Proxy for plastic degradation” value (PET [3]; 55 °C) was 1 µM. The “Proxy for plastic degradation” value (PET [3]; 65 °C) was 1 µM.
